In US20030073808:

What was measured:
[1] = system: ChePep-2 (IDA coupled with a peptide having SEQ ID No. 5)
[2] = system: ChePep-5 (AFTA combined with a peptide having SEQ ID No. 7)
[3] = system: ChePep-1 (PSDE coupled with the peptide having SEQ ID No. 4)
[4] = system: ChePep-6 (AFTA combined with a peptide having SEQ ID No. 8)
[5] = system: ChePep-3 (PSDE combined with a peptide having SEQ ID No. 6)

## Active MMP-9 enzyme
[1]
  FRET substrate peptide cleavage by MMP-9: regulates MMP-9 in the fluorescence resonance energy transfer (FRET) assay in a dose dependent manner
[2]
  FRET substrate peptide cleavage by MMP-9: ChePep-5 proves to be a better regulator than the IDA or the PSDE based chelating peptides
[3]
  hydrolysis of fluoresceinated collagen by MMP-9: prevents the enzyme from degrading fluoresceinated collagen in a dose dependent manner
[4]
  FRET substrate peptide cleavage by MMP-9: ChePep-6 is an effective MMP-9 regulator at low molar stoichiometries
[5]
  FRET substrate peptide cleavage by MMP-9: show nearly identical ability to regulate MMP-9 in the standard FRET assay
